Data reported in patent US10159707B2, “Treatment of cancers with immunostimulatory HIV Tat derivative polypeptides” (PIN Pharma, Inc., priority 2013, dated 2018).
Entries after “also recorded” stand apart in the source; their conditions may differ.

B1: Nani-P1: Tat derivative polypeptide SEQ ID NO:2; TF HIV-1, cysteine-rich HIV-1, C-terminal HIV-1 (protein)
chain: MEPVDANLEAWKHAGSQPRKTACTTCYCKKCCFHCQVCFTRKGLGISYGRKKRRQRRRAPQDSQTHQASLSKQPASQSRGDPTGPTESKKKVERETETDPFD
modifications: Tat derivative polypeptide
B2: Nani-P3: Tat derivative polypeptide SEQ ID NO:4; TF SIVsmm, cysteine-rich murine βdefensin, C-terminal HIV-1 (protein)
chain: METPLKEQENSLESCREHSSSISEVDVPTPVSCLRKGGRCWNRCIGNTRQIGSCGVPFLKCCKRKPFTRKGLGISYGRKKRRQRRRAPQDSQTHQASLSKQPASQSRGDPTGPTESKKKVERETETDPFD
modifications: Tat derivative polypeptide

Legend:
[1] = tested on: 4T1 cells; assay: Repeated dosing of Nani-P2 and cyclophosphamide in 4T1 tumor-bearing mice; type: in vivo, mouse; conditions: cyclophosphamide 80 mg/kg IP weekly from day 10
Description: Four groups of 10 BALB/c mice were implanted with 1×10^4 4 T1 cells SC into the mammary fat pad. Treatment was initiated when tumor diameters reached 4-5 mm, on day 10. Control mice were injected IV with PBS at 3 days intervals, while alternating treatment mice received 3 doses of drug every 3 days in rotating 10 day cycles. Tumor burden (tumor size mm^3) was calculated using a standard formula. CY (cyclophosphamide alone) mice were injected IP weekly with 80 mg/kg per mouse beginning on day 10. Cy/Nani-P2 (cyclophosphamide first followed by Nani-P2) mice were first injected IP with cyclophosphamide (80 mg/kg) at 3 days intervals for three doses starting at day 10 and then injected IV with Nani-P2 (40 ng) at 3 days intervals for three doses in rotation. The cycle of 3 doses of CY followed by 3 doses of Nani-P2 was repeated until day 50. Nani-P2/CY (Nani-P2 first followed by cyclophosphamide) mice were first injected IV with Nani-P2 (40 ng) at 3 day intervals for 3 doses starting on day 10 and then injected i.p. with cyclophosphamide at 3 day intervals in rotation. The cycle of 3 doses of Nani-P2 followed by 3 doses of CY was repeated until day 50.

[2] = tested on: 4T1 breast tumor; assay: 4T1 primary breast tumor growth in BALB/c mice; type: in vivo, mouse; conditions: 400 ng partially-purified, SC, days 0, 7, 14, 21 (Nani-P3 also 2 μg); from day 15, p<0.05
Description: BALB/c mice were injected (SC) with 1×10^4 4 T1, 1×10^5 TS/A or 2×10^5 SM1 cells, respectively, in the left mammary pad on day 0. […] The control group received PBS injection. […] Tumor burden (tumor volume) was measured and recorded three times weekly. Animals were sacrificed when tumors reached a volume of 15 mm in diameter and the tumors harvested and weighed.
The therapeutic effect of systemic administration of synthetic, Tat-derived compositions in murine models of breast cancer was investigated. […]

Molecule	mice dead by day 42 [1]	4T1 tumor burden versus PBS control [2]
O=P1(N(CCCl)CCCl)NCCCO1 (stereo not drawn) [cyclophosphamide, reference compound]	10/10	–
B1	–	significantly reduced tumor burden; also recorded: significant
B2	–	less effective at suppressing 4T1 primary tumor growth; also recorded: no difference
